The chains are these.
B1: Parkinson disease protein 7 (Homo sapiens), Q99497 (parent)
chain: MASKRALVILAKGAEEMETVIPVDVMRRAGIKVTVAGLAGKDPVQCSRDVVICPDASLEDAKKEGPYDVVVLPGGNLGAQNLSESAAVKEILKEQENRKGLIAAICAGPTALLAHEIGFGSKVTTHPLAKDKMMNGGHYTYSENRVEKDGLILTSRGPGTSFEFALAIVEALNGKEVAAQVKAPLVLKD

This experiment covers variants of B1. Conditions: with rack1_human RACK1, P63244.
Regarding MASKRALVILAKGAEEMETVIPVDVMRRAGIKVTVAGLAGKDPVQCSRDVVISPDASLEDAKKEGPYDVVVLPGGNLGAQNLSESAAVKEILKEQENRKGLIAAICAGPTALLAHEIGFGSKVTTHPLAKDKMMNGGHYTYSENRVEKDGLILTSRGPGTSFEFALAIVEALNGKEVAAQVKAPLVLKD [C53S], the “effect of a mutation on the interaction” value is “decreasing interaction strength”.

In the case of MASKRALVILAKGAEEMETVIPVDVMRRAGIKVTVAGLAGKDPVQSSRDVVICPDASLEDAKKEGPYDVVVLPGGNLGAQNLSESAAVKEILKEQENRKGLIAAICAGPTALLAHEIGFGSKVTTHPLAKDKMMNGGHYTYSENRVEKDGLILTSRGPGTSFEFALAIVEALNGKEVAAQVKAPLVLKD [C46S], the “effect of a mutation on the interaction” value is “disrupting interaction strength”.

Regarding MASKRALVILAKGAEEMETVIPVDVMRRAGIKVTVAGLAGKDPVQCSRDVVICPDASLEDAKKEGPYDVVVLPGGNLGAQNLSESAAVKEILKEQENRKGLIAAISAGPTALLAHEIGFGSKVTTHPLAKDKMMNGGHYTYSENRVEKDGLILTSRGPGTSFEFALAIVEALNGKEVAAQVKAPLVLKD [C106S], the “effect of a mutation on the interaction” value is reported as “disrupting interaction strength”.

These data come from IntAct's records for PubMed 24947010.
